# Data reported in IntAct's records for PubMed 23511974.
# B1: Centrosomal protein of 135 kDa (Homo sapiens), Q66GS9 (parent)
# chain: MTTAVERKYINIRKRLDQLGYRQTLTVECLPLVEKLFSDLVHTTESLRQSKLSAVKAEKESANFDFVLEPYKLENARLSRENNELYLELMKLREHSDQHVKELKTSLKKCARETADLKFLNNQYAHKLKLLEKESKAKNERIQQLQEKNLHAVVQTPGGKKRSIAFRRQRMQIDEPVPPSEVSSYPVPQPDDPYIADLLQVADNRIQELQQEVHQLQEKLAMMESGVRDYSKQIELREREIERLSVALDGGRSPDVLSLESRNKTNEKLIAHLNIQVDFLQQANKDLEKRIRELMETKETVTSEVVNLSNKNEKLCQELTEIDQLAQQLERHKEEVLETADKELGEAKKEIKRKLSEMQDLEETMAKLQLELNLCQKEKERLSDELLVKSDLETVVHQLEQEKQRLSKKVESFAVTERQLTLEVERMRLEHGIKRRDRSPSRLDTFLKGIEEERDYYKKELERLQHIIQRRSCSTSYSAREKSSIFRTPEKGDYNSEIHQITRERDELQRMLERFEKYMEDIQSNVKLLTAERDKLSVLYNEAQEELSALRKESTQTTAPHNIVSLMEKEKELALSDLRRIMAEKEALREKLEHIEEVSLFGKSELEKTIEHLTCVNHQLESEKYELKSKVLIMKETIESLENKLKVQAQKFSHVAGDSSHQKTEVNSLRIVNEQLQRSVDDYQHRLSIKRGELESAQAQIKILEEKIDELNLKMTSQDEEAHVMKKTIGVIDKEKDFLQETVDEKTEKIANLQENLANKEKAVAQMKIMISECESSVNQLKETLVNRDREINSLRRQLDAAHKELDEVGRSREIAFKENRRLQDDLATMARENQEISLELEAAVQEKEEMKSRVHKYITEVSRWESLMAAKEKENQDLLDRFQMLHNRAEDWEVKAHQAEGESSSVRLELLSIDTERRHLRERVELLEKEIQEHINAHHAYESQISSMAKAMSRLEEELRHQEDEKATVLNDLSSLRELCIKLDSGKDIMTQQLNSKNLEFERVVVELENVKSESDLLKKQLSNERHTVKNLESLLATNRDKEFHSHLTSHEKDTEIQLLKEKLTLSESKLTSQSRENTMLRAKVAQLQTDYDALKRQISTERYERERAIQEMRRHGLATPPLSSTLRSPSHSPEHRNV
# partner: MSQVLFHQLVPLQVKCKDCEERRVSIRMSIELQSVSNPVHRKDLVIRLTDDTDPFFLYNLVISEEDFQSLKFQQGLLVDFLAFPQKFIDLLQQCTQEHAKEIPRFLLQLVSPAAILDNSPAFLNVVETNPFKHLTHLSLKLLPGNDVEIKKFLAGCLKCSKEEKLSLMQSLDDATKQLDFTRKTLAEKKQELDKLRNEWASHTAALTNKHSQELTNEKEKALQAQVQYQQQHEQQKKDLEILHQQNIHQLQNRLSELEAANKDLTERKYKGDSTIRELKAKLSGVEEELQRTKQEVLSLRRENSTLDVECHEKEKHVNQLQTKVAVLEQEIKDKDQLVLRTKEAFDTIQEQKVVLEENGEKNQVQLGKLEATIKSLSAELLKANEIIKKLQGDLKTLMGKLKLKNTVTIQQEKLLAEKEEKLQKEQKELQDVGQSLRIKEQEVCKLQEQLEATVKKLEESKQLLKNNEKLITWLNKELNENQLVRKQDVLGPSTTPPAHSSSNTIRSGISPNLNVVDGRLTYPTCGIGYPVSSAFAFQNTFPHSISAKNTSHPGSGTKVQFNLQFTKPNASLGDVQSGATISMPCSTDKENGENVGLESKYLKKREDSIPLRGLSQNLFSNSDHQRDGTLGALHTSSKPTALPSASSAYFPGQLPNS
# Variants of: B1
# Settings: with sas6_human SASS6, Q6UVJ0
row,effect of a mutation on the interaction,Variant
1,disrupting interaction,L588P
